From patent US20080280824A1, “COMPOSITIONS AND METHODS FOR TREATMENT OF CANCER OR NEURODEGENERATIVE DISEASE WITH PEPTIDE BASED MICROTUBULE STABILIZERS OR INHIBITORS” (University of Washington, priority 2007, published 2008)
Entries after “also recorded” stand apart in the source; their conditions may differ. Values belong to the molecule of their own block, whether it stands above or below them.

What was measured:
Bovine brain tubulin [1] = molecular target: T1, Bovine brain tubulin (Bos taurus, UniProt P81947+Q6B856); experiment: Microtubule assembly assay (DAPI fluorescence, Microtubule Stabilization/Destabilization Assay kit); format: biochemical; conditions: for effect on total microtubule assembly / amount of microtubules formed in 45 minutes / effect on rate of microtubule assembly: peptide or control molecule; for effect on microtubule assembly, vs absence of αB crystallin: wt or mutant αB crystallin protein, tubulin alone normalized to 1.0
T1 construct: Bovine brain tubulin was dissolved to 200 μM; purchased Cytoskeleton; Denver, Colo; host or cells: bovine brain
Description: Microtubule assembly assays. The effect of selected αB crystallin peptides on the in vitro assembly of tubulin into microtubules was evaluated using the Microtubule Stabilization/Destabilization Assay kit (Cytoskeleton; Denver, Colo.) as described previously. Bonne et al., J Biol Chem 260:2819-25, 1985. Bovine brain tubulin was dissolved to 200 μM in 80 mM PIPES, 2 mM MgCl2, 0.5 mM EGTA, 10 μM DAPI, 1 mM GTP pH 6.9. 8.5 μl of the tubulin was mixed with 40 μl of 80 mM PIPES, 2 mM MgCl2, 0.5 mM EGTA, 7.4 μM DAPI, 16% Glycerol, 1.1 mM GTP pH 6.9 and 4.3 μl of 2 mM peptide in 2.5% DMSO, 2 mM Paclitaxel (polymerization promoter) in 100% DMSO, 15 mM CaCl2 (polymerization inhibitor) in water, or 2.5% DMSO only. Microtubule assembly was monitored by measuring the fluorescence of DAPI, a molecule whose emission fluorescence at λ=460 is enhanced 8-fold when it is incorporated into assembled microtubules. Bonne et al., J Biol Chem 260:2819-25, 1985. Fluorescence of samples were continuously read on a Perkin Elmer Victor^3 V fluorescence plate reader (Excitation λ=355 nm, Emission λ=460 nm) at 37° C. for 45 minutes.
The effect of wt and three mutant αB crystallins, Δ41-58, αAβ8, and Δ155-165 on the in vitro assembly of tubulin into microtubules was evaluated using the Microtubule Stabilization/Destabilization Assay kit described above (Cytoskeleton; Denver, Colo.). Bovine brain tubulin was dissolved to 200 μM in 80 mM PIPES, 2 mM MgCl2, 0.5 mM EGTA, 10 μM DAPI, 1 mM GTP pH 6.9. 8.5 μl of the tubulin was mixed with 40 μl of 80 mM PIPES, 2 mM MgCl2, 0.5 mM EGTA, 7.4 μM DAPI, 16% Glycerol, 1.1 mM GTP pH 6.9 and 4.3 μl of 80 μM protein in 20 mM Tris-Cl, pH8.0 or Tris-Cl buffer only. Fluorescence of samples were continuously read on a Perkin Elmer Victor^3 V fluorescence plate reader (Excitation λ=355 nm, Emission λ=460 nm) at 37° C. for 45 minutes.

Bovine brain tubulin [2] = experiment: Tubulin thermal aggregation assay (absorbance at 340 nm); format: biochemical; conditions: for effect on thermal aggregation of tubulin: synthetic peptide, 34 μM tubulin; for effect on tubulin aggregation, vs absence of αB crystallin: wt or mutant αB crystallin protein
Description: Tubulin aggregation assays. The effect of αB crystallin peptides and mutants on the thermal aggregation of tubulin was evaluated using ultra-violet spectroscopy. Bovine brain tubulin was dissolved to 200 μM in 80 mM PIPES, 2 mM MgCl2, 0.5 mM EGTA, pH 6.9. 4.25 μl of 0.08, 0.4, or 2 mM test peptide or protein was diluted into 40 μl of 80 mM PIPES, 2 mM MgCl2, 0.5 mM EGTA, pH 6.9. 8.5 μl of the 200 μM tubulin was added to each sample. Samples were heated at 52° C. and the absorbance at λ=340 nm was measured continuously for 60 minutes using a Pharmacia Biotech Ultrospec 3000. GTP and glycerol were not present in the samples because they induce the assembly of microtubules.

pre-formed microtubules = experiment: Microtubule disassembly assay (DAPI fluorescence); format: biochemical, Bovine; conditions: for effect on microtubule disassembly / inhibition of microtubule disassembly: peptide 170 μM, 34 μM pre-formed microtubules; for effect on microtubule disassembly / inhibition of microtubule disassembly / effect on microtubule disassembly (words), vs absence of αB crystallin: 23° C., 20 minutes; for effect on microtubule disassembly (words), vs absence of αB crystallin: wt or mutant αB crystallin (6.8 μM and 34 μM), 34 μM microtubules
Description: Microtubule disassembly assays. The effect of αB crystallin peptides and mutants on the in vitro disassembly of microtubules into soluble tubulin was evaluated using the Microtubule Stabilization/Destabilization Assay kit described above (Cytoskeleton; Denver, Colo.) as described previously^36. 34 μM pre-formed microtubules were incubated with the αB crystallin peptides (170 μM) or wt and mutant αB crystallins (6.8 μM and 34 μM) at 23° C. for 20 minutes. Incubation of microtubules at 23° C. results in the spontaneous disassembly of microtubules. The decrease in DAPI fluorescence at λ=460 nm was measured continuously for 20 minutes by exciting the samples at λ=355 nm using a Perkin Elmer Victor^3 V fluorescence plate reader.

[3] = 34 μM tubulin, 37° C., 45 minutes, vs tubulin alone
[4] = 34 μM tubulin, 37° C., vs tubulin alone

T1 sequence (P81947 whole entry): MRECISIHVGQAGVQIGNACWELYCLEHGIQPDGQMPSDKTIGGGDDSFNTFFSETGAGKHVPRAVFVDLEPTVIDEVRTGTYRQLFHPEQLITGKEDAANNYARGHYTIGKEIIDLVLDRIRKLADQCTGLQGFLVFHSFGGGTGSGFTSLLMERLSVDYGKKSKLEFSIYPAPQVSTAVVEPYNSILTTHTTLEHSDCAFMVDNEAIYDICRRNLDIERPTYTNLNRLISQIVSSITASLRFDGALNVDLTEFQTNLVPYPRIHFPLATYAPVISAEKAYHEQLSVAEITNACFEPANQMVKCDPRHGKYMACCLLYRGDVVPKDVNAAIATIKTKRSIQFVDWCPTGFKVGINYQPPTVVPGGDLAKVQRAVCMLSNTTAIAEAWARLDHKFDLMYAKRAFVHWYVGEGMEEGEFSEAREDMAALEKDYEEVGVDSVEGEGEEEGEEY
T1 sequence (Q6B856 whole entry): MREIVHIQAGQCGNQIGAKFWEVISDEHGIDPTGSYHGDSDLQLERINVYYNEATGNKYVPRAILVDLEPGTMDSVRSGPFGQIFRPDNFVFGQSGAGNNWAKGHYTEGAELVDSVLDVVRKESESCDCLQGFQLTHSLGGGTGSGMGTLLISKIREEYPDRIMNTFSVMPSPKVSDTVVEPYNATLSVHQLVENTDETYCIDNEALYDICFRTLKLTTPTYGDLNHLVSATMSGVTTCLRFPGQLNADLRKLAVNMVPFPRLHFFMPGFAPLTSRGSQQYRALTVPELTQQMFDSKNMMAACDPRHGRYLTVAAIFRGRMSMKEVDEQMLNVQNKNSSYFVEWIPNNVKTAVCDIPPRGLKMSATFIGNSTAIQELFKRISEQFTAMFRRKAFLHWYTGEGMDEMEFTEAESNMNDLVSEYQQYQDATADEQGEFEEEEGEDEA

effect on total microtubule assembly / amount of microtubules formed in 45 minutes (Bovine brain tubulin [1]; [3]): inhibited microtubule assembly
Molecule: [Ca+2].[Cl-].[Cl-] [CaCl2, reference compound]

effect on rate of microtubule assembly (Bovine brain tubulin [1]; [4]): accelerated microtubule assembly
Molecule: CC(=O)O[C@H]1C(=O)[C@@]2(C)[C@H]([C@H](OC(=O)c3ccccc3)[C@]3(O)C[C@H](OC(=O)[C@H](O)[C@@H](NC(=O)c4ccccc4)c4ccccc4)C(C)=C1C3(C)C)[C@]1(OC(C)=O)CO[C@@H]1C[C@@H]2O [Paclitaxel, reference compound]

Molecule: DRFSVNLDVKHFS
effect on thermal aggregation of tubulin (Bovine brain tubulin [2]; 52° C., 60 minutes): no effect
effect on microtubule disassembly (pre-formed microtubules): no effect
effect on microtubule disassembly (pre-formed microtubules; listed as 73DRFSVNLDVKHFS85): little or no effect
effect on total microtubule assembly / amount of microtubules formed in 45 minutes (Bovine brain tubulin [1]; [3]): no effect; also recorded: without an effect
effect on total microtubule assembly / amount of microtubules formed in 45 minutes (Bovine brain tubulin [1]; 34 μM tubulin, 37° C., 45 minutes, vs tubulin alone, listed as 73DRFSVNLDVKHFS85): no effect; also recorded: little or no effect
effect on rate of microtubule assembly (Bovine brain tubulin [1]; [4]): accelerated microtubule assembly; also recorded: increased

effect on total microtubule assembly / amount of microtubules formed in 45 minutes (Bovine brain tubulin [1]; [3]): increased
effect on total microtubule assembly / amount of microtubules formed in 45 minutes (Bovine brain tubulin [1]; 34 μM tubulin, 37° C., 45 minutes, vs tubulin alone, listed as 155ERTIPITRE165): promote microtubule assembly
effect on total microtubule assembly / amount of microtubules formed in 45 minutes (Bovine brain tubulin [1]; 34 μM tubulin, 37° C., 45 minutes, vs tubulin alone, listed as 156ERTIPITRE164): promote microtubule assembly
effect on rate of microtubule assembly (Bovine brain tubulin [1]; [4]): increased
Molecule: ERTIPITRE [synthetic peptide of human αB crystallin C-terminal extension, residues 156-164]
effect on thermal aggregation of tubulin (Bovine brain tubulin [2]; 52° C., 60 minutes): decreased
effect on microtubule disassembly (pre-formed microtubules): decreased
inhibition of microtubule disassembly (pre-formed microtubules): ~36%
effect on microtubule disassembly (pre-formed microtubules; listed as 156ERTIPITRE164): inhibit microtubule disassembly

effect on total microtubule assembly / amount of microtubules formed in 45 minutes (Bovine brain tubulin [1]; 34 μM tubulin, 37° C., 45 minutes, vs tubulin alone, listed as 113FISREFHR120): inhibited microtubule assembly
effect on rate of microtubule assembly (Bovine brain tubulin [1]; [4]): slowed microtubule assembly
decrease of microtubule assembly (Bovine brain tubulin [1]; synthetic peptide (4.3 μl of 2 mM), 34 μM tubulin, 37° C., 45 minutes, vs tubulin alone): approximately 45%
Molecule: FISREFHR
effect on thermal aggregation of tubulin (Bovine brain tubulin [2]; 52° C., 60 minutes): decreased
effect on thermal aggregation of tubulin (Bovine brain tubulin [2]; 52° C., 60 minutes, listed as 113FISREFHR120): protected
effect on microtubule disassembly (pre-formed microtubules): decreased
inhibition of microtubule disassembly (pre-formed microtubules): ~24%
effect on microtubule disassembly (pre-formed microtubules; listed as 113FISREFHR120): inhibited
effect on total microtubule assembly / amount of microtubules formed in 45 minutes (Bovine brain tubulin [1]; [3]): decreased the amount of microtubules formed; also recorded: inhibited

effect on total microtubule assembly / amount of microtubules formed in 45 minutes (Bovine brain tubulin [1]; [3]): increased
effect on total microtubule assembly / amount of microtubules formed in 45 minutes (Bovine brain tubulin [1]; 34 μM tubulin, 37° C., 45 minutes, vs tubulin alone, listed as 131LTITSSLSSDGV142): promote microtubule assembly
effect on rate of microtubule assembly (Bovine brain tubulin [1]; [4]): increased
Molecule: LTITSSLSSDGV
effect on thermal aggregation of tubulin (Bovine brain tubulin [2]; 52° C., 60 minutes): decreased
effect on thermal aggregation of tubulin (Bovine brain tubulin [2]; 52° C., 60 minutes, listed as 131LTITSSLSSDGV142): protected
effect on microtubule disassembly (pre-formed microtubules): no effect
effect on microtubule disassembly (pre-formed microtubules; listed as 131LTITSSLSSDGV142): inhibit microtubule disassembly

delay of initiation of microtubule assembly relative to tubulin alone (Bovine brain tubulin [1]; 34 μM tubulin, 37° C.): approximately 5 minutes
effect on total microtubule assembly / amount of microtubules formed in 45 minutes (Bovine brain tubulin [1]; [3]): no effect; also recorded: no change
effect on rate of microtubule assembly (Bovine brain tubulin [1]; [4]): slowed the rate of microtubule assembly
Molecule: STSLSPFYLRPPSFLRAP
effect on thermal aggregation of tubulin (Bovine brain tubulin [2]; 52° C., 60 minutes): small protective effect
effect on microtubule disassembly (pre-formed microtubules): no effect
effect on microtubule disassembly (pre-formed microtubules; listed as 41STSLSPFYLRPPSFLRAP58): little or no effect
effect on total microtubule assembly / amount of microtubules formed in 45 minutes (Bovine brain tubulin [1]; 34 μM tubulin, 37° C., 45 minutes, vs tubulin alone, listed as 41STSLSPFYLRPPSFLRAP58): no effect; also recorded: little or no effect

effect on microtubule assembly (words) (Bovine brain tubulin [1]; high αB crystallin concentrations, tubulin:αB crystallin ratios <1:4): inhibited
effect on microtubule assembly (words) (Bovine brain tubulin [1]; molar ratios of tubulin to αB crystallin <1:2): inhibited microtubule assembly
amount of microtubules formed less than tubulin alone (Bovine brain tubulin [1]; ratio of tubulin to αB crystallin <1:2, 34 μM tubulin): 30-63%
effect on microtubule assembly (words) (Bovine brain tubulin [1]; ratio of tubulin to αB crystallin >4:1): minimal
effect on microtubule assembly (words) (Bovine brain tubulin [1]; ratio of tubulin to αB crystallin >4:1, listed as αB crystallin): little or no effect
microtubule assembly, normalized (absence of αB crystallin = 1.0) (Bovine brain tubulin [1]; ratios <1.4, FIG. 5): < 1
microtubule assembly, normalized (absence of αB crystallin = 1.0) (Bovine brain tubulin [1]; ratios between 4:1 and 1.2, FIG. 5): > 1.0
microtubule assembly, normalized (absence of αB crystallin = 1.0) (Bovine brain tubulin [1]; tubulin to αB crystallin ratios >4:1, FIG. 5): 1.0
effect on microtubule assembly, vs absence of αB crystallin (Bovine brain tubulin [1]): increased
increase of microtubule assembly (Bovine brain tubulin [1]; αB crystallin protein (4.3 μl of 80 μM), 34 μM tubulin, 37° C., 45 minutes): ~41%
Molecule: wt αB crystallin: wild-type full-length human αB crystallin, small heat shock protein and molecular chaperone, expressed and purified
decrease of thermal aggregation of tubulin (protection) (Bovine brain tubulin [2]; full-length αB crystallin protein, 52° C., 60 minutes): 65%
effect on tubulin aggregation, vs absence of αB crystallin (Bovine brain tubulin [2]; 52° C., 60 minutes): decreased
effect on microtubule disassembly (words), vs absence of αB crystallin (pre-formed microtubules): unchanged
effect on microtubule disassembly (words), vs absence of αB crystallin (pre-formed microtubules; listed as Wt αB crystallin): no effect
effect on microtubule assembly (words) (Bovine brain tubulin [1]; molar ratios of tubulin to αB crystallin between 4:1 and 1:2): favored the assembly of additional microtubules; also recorded: promoted
microtubule assembly (Bovine brain tubulin [1]; ratio of tubulin to αB crystallin 1:10): no microtubules were formed; also recorded: undetectable

microtubule assembly relative to wt αB crystallin (Bovine brain tubulin [1]; mutant αB crystallin, FIG. 4): lower
effect on microtubule assembly, vs absence of αB crystallin (Bovine brain tubulin [1]): unchanged
B1: R120G: single point mutant of human αB crystallin, Arg-120 replaced with glycine (protein)
chain: MDIAIHHPWIRRPFFPFHSPSRLFDQFFGEHLLESDLFPTSTSLSPFYLRPPSFLRAPSWFDTGLSEMRLEKDRFSVNLDVKHFSPEELKVKVLGDVIEVHGKHEERQDEHGFISREFHGKYRIPADVDPLTITSSLSSDGVLTVNGPRKQVSGPERTIPITREEKPAVTAAPKK
tubulin aggregation relative to wt αB crystallin (Bovine brain tubulin [2]; mutant αB crystallin, FIG. 4): similar
effect on tubulin aggregation, vs absence of αB crystallin (Bovine brain tubulin [2]; 52° C., 60 minutes): decreased
microtubule disassembly relative to wt αB crystallin (pre-formed microtubules; mutant αB crystallin, FIG. 4): similar
effect on microtubule disassembly (words), vs absence of αB crystallin (pre-formed microtubules): unchanged
